Laboratory results taken from patent US20260209365A1, “ANTI-COMMON GAMMA CHAIN PROTEINS AND COMPOSITIONS OF MATTER” (SINOMAB BIOSCIENCE LIMITED, priority 2023, published 2026).

Tests used:
Type in all cases: cell-based, human
[1] = tested on: cleaved caspase 3 and μ-H2AX; assay: Western blot of cleaved caspase 3 and μ-H2AX in Ramos; conditions: IL-4 10 ng/ml; 33 nM
Description: Levels of cleaved caspase 3 (apoptotic protein) and μ-H2AX (DNA damage marker) were investigated by western blot in the Ramos B cells treated in the same paradigm. In brief, total proteins were extracted from the Ramos cells in RIPA lysis buffer supplemented with Halt™ Protease and Phosphatase Inhibitor Cocktail. Proteins were denatured and separated through electrophoresis and blotted on the nitrocellulose membrane. The membrane was blocked with 5% nonfat milk diluted in TBST, then incubated with primary antibodies diluted in 5% BSA/TBS T at 4° C. overnight in a rotating wheel. Next day, membrane was washed with PBST and incubated with secondary antibodies diluted in 5% milk/TBST for an hour at RT. Intensities of protein bands were determined using ECL substrate kit in the ChemiDoc Imaging System.

CD23 expression = assay: qRT-PCR of CD23 expression in Ramos; conditions: IL-4 10 ng/ml, 24 hours, 33 nM
Description: Genes related to the B cell functions were investigated by quantitative real-time PCR (qRT-PCR). In brief, Ramos cells were starved in serum-free RPMI1640 medium for 24 hours and then treated with 10 ng/ml IL-4 or IL-21 for 24 hours. Total RNA was extracted by RNAzol following manufacturer's protocol. Reverse transcription was performed in 500 ng of total RNA using PrimeScript RT reagent kit and the gene expression was analyzed by quantitative real-time PCR using TB Green Premix Ex Taq in Lightcycler® 480 Real-Time PCR System. Housekeeping gene GAPDH was used for normalization.

granzyme A secretion = assay: Granzyme A secretion from KHYG-1, ELISA; conditions: 3 days, 33 nM
Description: To test the efficacies of anti-γc antibodies, proliferation and granzyme A secretion were chosen as the experimental models. In brief, KHYG-1 was seeded into either 48- or 96-well plates and starved in non-IL-2 supplemented medium overnight. After replenishment with new medium, KHYG-1 was pre-incubated with anti-γc antibodies or ritlecitinib for an hour before the administration of γc cytokines for 3 days. Proliferation rate was determined by the addition of WST-8 reagent while the secretion of granzyme A was estimated by ELISA measurement.

[2] = tested on: granzyme and IFNγ secretion; assay: Secretion of granzymes and IFNγ from PBMC culture, ELISA
Description: Activation of T and NK cells in the PBMC culture could be studied by granzyme and IFNγ secretion [Carlin et al., Blood., 2005; 106 (12): 3874-9; Grossman et al., Blood., 2004; 104 (9): 2840-8; Keppel et al., J Immunol., 2015; 194 (4): 1954-1962; Tamang et al., Cytokine., 2006; 36 (3-4): 148-59]. Similar results are obtained in-house that IL-2 and IL-15 but not IL-21 could trigger secretion of granzyme A and IFNγ in PBMC culture (FIG. 15A-B).
Antibodies or ritlecitinib were added into the PBMC culture to investigate their inhibitory effects in the presence of IL-2 or IL-15 treatment.
Releases of cytolytic agents from PBMC culture were further evaluated by ELISA assays.

[3] = tested on: IL-15 induced STAT5 phosphorylation; assay: Inhibition of IL-15 induced STAT phosphorylation in KHYG-1 NK cell line, flow cytometry; conditions: ScFv 10 μg/ml
Excerpt: (§1) Cells were harvested and stained with FITC conjugated anti-pSTAT6, PE conjugated anti-pSTAT3 or APC con jugated anti-pSTAT5 antibodies for flow cytometry analyses. In some embodiments, the purified ScFv could block the IL-4 induced STAT6 phosphorylation in cell culture (e.g., Ramos). In some embodiments, the purified ScFv could block the IL-7 induced STAT5 phosphorylation in cell culture (e.g., HPB-ALL). In some embodiments, the purified ScFv could block the IL-9 induced STAT3 phosphorylation in cell culture (e.g., Jurkat). In some embodiments, the purified ScFv could block the IL-15 induced STAT5 phosphorylation in cell culture (e.g., KHYG-1). In some embodiments, the purified ScFv could block the IL-21 induced STAT3 phosphorylation in cell culture (e.g., Ramos).
(§2) Flow cytometry was employed to measure the percentage of p-STAT expressing cells after cytokine induction and anti-γc ScFv treatment. KHYG-1 (Creative Bioarray, Shirley, NY 11967, USA) was starved in IL-2 free RPMI1640 (ATCC modification, ThermoFisher Scientific, Waltham, MA, USA) with 10% FBS (ThermoFisher Scientific) for 2 days. Ramos, HPB-ALL and Jurkat cell lines were used directly without starvation. Cells were replenished with fresh RPMI1640 medium and pretreated with anti-γc ScFv (10 μg/mL) for an hour. After treatment with TL-4 (10 ng/ml, Sino Biological), IL-7 (50 ng/ml, Sino Biological), IL-9 (50 ng/ml, Sino Biological), IL-15 (10 ng/ml, Sino Biological) or IL-21 (10 ng/ml, Sino Biological) for 15 min, cells were fixed in 4% paraformaldehyde (PFA, Sigma, St. Louis, Missouri, USA) for 10 min, permeabilized in 0.1% Triton X-100 (Sigma) for 10 min and then stained with FITC conjugated anti-pSTAT6, PE conjugated anti-pSTAT3 or APC con jugated anti-pSTAT5 (all diluted in 1:100, Biolegend, San Diego, California, USA) for 30 min at 37° C. Percentage of p-STAT expressing cells was measured by BD FACSLyric™ Clinical Flow Cytometry System (BD Biosciences, New Jersey, USA). Data were analyzed by Flowjo (version 10, BD).
(§3) Different cell lines were used for testing. KHYG-1 refers to the NK cell line harvested from the peripheral blood of a person with aggressive NK cell leukemia. This cell line could respond to IL-2 and IL-15 stimulation in-vitro [Yamasaki et al., Leuk Res., […]; 28 (10): 1023-31]. Ramos is a human Burkitts Lymphoma cell line (CRL-1596™) and could be used as a model for IL-4 and IL-21 studies [Hui et al., Front Immunol., 2022; 13: 919854]. Jurkat is a human T lymphoblast cell line (Clone E6-1, TIB-152™) and is widely used in the T cell studies of IL-9 function. HPB-ALL is a T cell leukemia model established from the peripheral blood of a child with ALL and thymoma at diagnosis in 1973 and could be used for IL-7 functional studies.

[4] = tested on: IL-4 induced STAT6 phosphorylation; assay: Inhibition of IL-4 induced STAT phosphorylation in Ramos B cell line, flow cytometry; conditions: ScFv 10 μg/ml
Excerpt: as §1, §2, §3

[5] = tested on: IL-21 induced STAT3 phosphorylation; assay: Inhibition of IL-21 induced STAT phosphorylation in Ramos B cell line, flow cytometry; conditions: ScFv 10 μg/ml
Excerpt: as §1, §2, §3

[6] = tested on: IL-7 induced STAT5 phosphorylation; assay: Inhibition of IL-7 induced STAT5 phosphorylation in HPB-ALL T cell line, flow cytometry; conditions: ScFv 10 μg/ml
Excerpt: as §1, §2, §3

[7] = tested on: IL-9 induced STAT3 phosphorylation; assay: Inhibition of IL-9 induced STAT3 phosphorylation in Jurkat T cell line, flow cytometry; conditions: ScFv 10 μg/ml
Excerpt: as §1, §2, §3

[8] = tested on: STAT phosphorylation induced by 6 γc cytokines; assay: Flow cytometry of p-STAT with full-length anti-γc antibodies in multiple cell lines; conditions: IL-2, IL-15 in KHYG-1; IL-4, IL-21 in Ramos; IL-7 in HPB-ALL; IL-9 in Jurkat; cytokines 10 ng/ml; 33 nM (5 μg/ml)
Description: Flow cytometry was employed to measure the percentage of p-STAT expressing cells after cytokine induction and anti-γc antibody treatment as previously described. IL-2 and IL-15 were tested in KHYG-1 NK cell line; IL-4 and IL-21 were tested in Ramos B cell line; IL-7 was tested in HPB-ALL T cell line; and IL-9 was tested in Jurkat T cell line.

Ramos B cells = assay: WST-8 proliferation assay, IL-4/IL-21 rescue of anti-IgM induced cell death; conditions: chimeric antibodies; 33 nM; IL-4/IL-21 10 ng/ml; 48 hours
Description: The effects of anti-γc antibodies in blocking IL-4 and IL-21 rescues of Ramos cell death after anti-IgM induced hyperactivation were investigated by WST-8 proliferation assay. In brief, Ramos cells (50000 cells in 100 l) were seeded into 96-well plate and stabilized at 37° C. for an hour. Cells were pretreated in anti-γc antibodies or ritlecitinib for an hour, followed by incubation of IL-4 (10 ng/ml) or IL-21 (10 ng/ml) and anti-IgM (2 ug/ml, #109-006-129, Jackson ImmunoResearch). Aft er 48 hours, 10 μl WST-8 reagent (ab228554, Abcam) was added to each well and incubated for 4 hours.
WST-8 could be reduced by cellular dehydrogenases to an orange formazan product, which the amount of formazan produced is directly proportional to the number of living Ramos cells. Optical density (OD) of each well was measured by absorbance at 450 nm using Varioskan LUX Multimode Microplate Reader (ThermoFisher Scientific).

Row | Molecule | block of IL-4 protective effects, μ-H2AX re-induced [1] | suppression of IL-4 induced CD23 expression (CD23 expression) | suppression of IL-2, IL-15 and IL-21 induced granzyme A secretion (granzyme A secretion) | suppression of IL-2 and IL-15 induced secretion of granzyme A and IFNγ ([2]; IL-2, IL-15 20 ng/ml, three days, 33 nM) | suppression of granzyme B secretion ([2]; IL-2 or IL-15, 33 nM, humanized antibodies) | p-STAT5 inhibition (%) [3] [%] | p-STAT6 inhibition (%) [4] [%] | p-STAT3 inhibition (%) [5] [%] | p-STAT5 inhibition (%) [6] [%] | p-STAT3 inhibition (%) [7] [%] | block of STAT phosphorylation [8] | block of IL-4 and IL-21 rescue of anti-IgM induced cell death (WST-8) (Ramos B cells)
1 | C=CC(=O)N1C[C@H](Nc2ncnc3[nH]ccc23)CC[C@@H]1C [ritlecitinib] | could block IL-4 protective effects | significantly suppress IL-4 induced CD23 expression | significantly suppress IL-2, IL-15 and IL-21 induced granzyme A secretion | significantly reduced | superior suppression to granzyme B secretion | – | – | – | – | – | – | –
2 | SM-05F: anti-γc antibody, full-length chimeric; CDR SEQ ID NO: 84, 86, 88, 92, 94, 96 (antibody, V domains shown) VH: EVQLQQSGPELVKPGASVKIFCKTSGYTFTEYTMHWVKQSHGESLEWIGGIDPNTGGVTYNQKFKGKATLTADKSSSTAYMELRSLTSEDSAVYYCARRRRYYGYALDYWGQGTSVTVSS VL: DVLMTQTPLSLPVSLGDQASISCRSSQSIVHNNGNTYLEWYLQKPGQSPKLLIYKVSNRFFGVPDRFSGSGSGTYFTLKISRVEAEDLGVYYCFQGSHVPWTFGGGTKLEIKR | – | – | – | – | – | 43.73 | 45.99 | 78.97 | 99.42 | 92.36 | barely demonstrated strong inhibitory effects | could block the effects of IL-4 and IL-21
